Experimental data: the RNAGym collection of RNA variant scans (doi:10.1021/acssynbio.7b00057)

B1: Pistol ribozyme (parent)
chain: GGGUCGUUGUUCCAUAAUCGCGUGGAUAUGGCACGCAAGUUUCUACCGGGCACCGUAAAUGUCCGACUGGAGCCGUUCGGGCGGCUAUAAACAGACCUCAGGCCCGAAGCGUGGCGGCACCUGCCGCCGGUGGUAAAAAAGAUCGGAAGAGCACACGUCU

Variants of: B1
Assay: aptazyme ON/OFF ratio, guanine; higher = stronger switching; co-transcriptional cleavage with and without guanine

Variant | aptazyme ON/OFF ratio
U7C U8C G9C | 1.13
U7C U8C G9C U10A U11G | 1.32
U7C U8C G9C U10A U11A | 1.44
U7C U8C G9C U10A U11C | 1.39
U7C U8C G9C U10A U11A C13A | 1.13
U7C U8C G9C U10A U11A C13G | 1.14
U7C U8C G9C U10A U11A C13U | 1.15
U7C U8C G9A U10G U11C C12U | 1.43
U7C U8C G9A U10G U11C C12A | 1.54
U7C U8C G9A U10G U11C C12G | 1.12
U7C U8C G9A U10C U11A C12G | 1.23
U7C U8C G9A U10C U11A C12A | 1.51
U7C U8C G9A U10C U11A C12U | 1.22
U7C U8C G9C U10A U11G C12G C13G | 1.12
U7C U8C G9C U10A U11G C12G C13U | 1.1
U7C U8C G9C U10A U11G C12G C13A | 1.15
U7C U8C G9A U10G U11A C12G C13A | 1.19
U7C U8C G9A U10G U11A C12G C13G | 1.2
U7C U8C G9A U10G U11A C12G C13U | 1.11
U7C U8C G9A U10G U11G C13G | 1.23
U7C U8C G9A U10G U11G C13A | 1.18
U7C U8C G9A U10G U11G C13U | 1.29
U7C U8C G9A U11A C12A C13U | 1.38
U7C U8C G9A U11A C12A C13A | 1.43

Variant | aptazyme ON/OFF ratio
U7C U8C G9A U11A C12A C13G | 1.18
U7C U8C G9A U10C U11C C13A | 1.08
U7C U8C G9A U10C U11C C13G | 1.21
U7C U8C G9A U10C U11C C13U | 1.19
U7C U8C G9A U10G U11C C13G | 1.01
U7C U8C G9A U10G U11C C13A | 1.24
U7C U8C G9A U10G U11C C13U | 1.17
U7C U8C G9A U10C C12A | 1.12
U7C U8C G9A U10C C12G | 1.33
U7C U8C G9A U10C C12U | 2.28
U7C U8C G9C U10A C12A | 1.11
U7C U8C G9C U10A C12U | 1.26
U7C U8C G9C U10A C12G | 1.16
U7C U8C G9C U10A U11C C12G | 1.21
U7C U8C G9C U10A U11C C12U | 1.17
U7C U8C G9C U10A U11C C12A | 1.21
U7C U8C G9A U10G U11A C12U | 1.11
U7C U8C G9A U10G U11A C12G | 1.17
U7C U8C G9A U10G U11A C12A | 1.37
U7C U8C G9A U10A U11G C12A C13A | 1.09
U7C U8C G9A U10A U11G C12A C13U | 1.16
U7C U8C G9A U10A U11G C12A C13G | 1.09
U7C U8C G9A U10G U11G C12U | 1.25
U7C U8C G9A U10G U11G C12A | 1.23

Variant | aptazyme ON/OFF ratio
U7C U8C G9A U10G U11G C12G | 1.16
U7C U8C G9A U11C C12G C13A | 1.34
U7C U8C G9A U11C C12G C13U | 1.23
U7C U8C G9A U11C C12G C13G | 1.29
U7C U8C G9A U10G U11A | 1.16
U7C U8C G9A U10G U11C | 1.22
U7C U8C G9A U10G U11G | 1.59
U7C U8C G9C U10C U11A C12U C13G | 1.11
U7C U8C G9C U10C U11A C12U C13U | 1.1
U7C U8C G9C U10C U11A C12U C13A | 1.08
U7C U8C G9C U10C U11A C12A C13U | 1.1
U7C U8C G9C U10C U11A C12A C13A | 1.07
U7C U8C G9C U10C U11A C12A C13G | 1.06
U7C U8C G9C C13A | 1.09
U7C U8C G9C C13U | 1.05
U7C U8C G9C C13G | 1.09
U7C U8C G9A U10C U11G C12G C13U | 1.17
U7C U8C G9A U10C U11G C12G C13A | 1.23
U7C U8C G9A U10C U11G C12G C13G | 1.41
U7C U8C G9A U10C U11G C12A C13G | 1.16
U7C U8C G9A U10C U11G C12A C13U | 1.52
U7C U8C G9A U10C U11G C12A C13A | 1.28
U7C U8C G9C U10A U11A C12G C13A | 1.11
U7C U8C G9C U10A U11A C12G C13U | 1.09

Variant | aptazyme ON/OFF ratio
U7C U8C G9C U10A U11A C12G C13G | 1.19
U7C U8C G9A U10A U11C C12G C13U | 1.31
U7C U8C G9A U10A U11C C12G C13G | 1.4
U7C U8C G9A U10A U11C C12G C13A | 1.4
U7C U8C G9A U11G | 1.62
U7C U8C G9A U11A | 1.16
U7C U8C G9A U11C | 1.82
U7C U8C G9A U10G U11G C12G C13A | 1.15
U7C U8C G9A U10G U11G C12G C13U | 1.11
U7C U8C G9A U10G U11G C12G C13G | 1.14
U7C U8C G9C U10C U11A | 1.4
U7C U8C G9C U10C U11C | 1.14
U7C U8C G9A U10G U11C C12U C13G | 1.18
U7C U8C G9A U10G U11C C12U C13U | 1.26
U7C U8C G9A U10G U11C C12U C13A | 1.29
U7C U8C G9C U10C U11C C12G C13A | 1.28
U7C U8C G9C U10C U11C C12G C13U | 1.1
U7C U8C G9C U10C U11C C12G C13G | 1.19
U7C U8C G9A U10C U11C C12G C13U | 1.29
U7C U8C G9A U10C U11C C12G C13G | 1.24
U7C U8C G9A U10C U11C C12G C13A | 1.5
U7C U8C G9A U10C U11G C12G | 1.36
U7C U8C G9A U10C U11G C12U | 1.21
U7C U8C G9A U10C U11G C12A | 1.26

Variant | aptazyme ON/OFF ratio
U7C U8C G9C U10C U11C C12A C13U | 1.02
U7C U8C G9C U10C U11C C12A C13G | 1.09
U7C U8C G9C U10C U11C C12A C13A | 0.986
U7C U8C G9A U10G U11C C12G C13U | 1.19
U7C U8C G9A U10G U11C C12G C13G | 1.26
U7C U8C G9A U10G U11C C12G C13A | 1.17
U7C U8C G9A U10A U11G C12U | 1.35
U7C U8C G9A U10A U11G C12G | 1.25
U7C U8C G9A U10A U11G C12A | 1.08
U7C U8C G9A U10A U11C C12G | 1.23
U7C U8C G9A U10A U11C C12A | 1.37
U7C U8C G9A U10A U11C C12U | 1.2
U7C U8C G9A U10C U11A C12G C13G | 1.19
U7C U8C G9A U10C U11A C12G C13A | 1.26
U7C U8C G9A U10C U11A C12G C13U | 1.13
U7C U8C G9C U10A U11C C12U C13G | 1.13
U7C U8C G9C U10A U11C C12U C13A | 1.13
U7C U8C G9C U10A U11C C12U C13U | 1.17
U7C U8C G9A U10A U11C C12A C13U | 1.31
U7C U8C G9A U10A U11C C12A C13G | 1.18
U7C U8C G9A U10A U11C C12A C13A | 1.17
U7C U8C G9A U10G U11C C12A C13U | 1.17
U7C U8C G9A U10G U11C C12A C13G | 1.07
U7C U8C G9A U10G U11C C12A C13A | 1.2

Variant | aptazyme ON/OFF ratio
U7C U8C G9A U10C U11C C12U C13U | 1.32
U7C U8C G9A U10C U11C C12U C13A | 1.2
U7C U8C G9A U10C U11C C12U C13G | 1.24
U7C U8C G9A U10C U11A C13G | 1.04
U7C U8C G9A U10C U11A C13A | 1.41
U7C U8C G9A U10C U11A C13U | 1.45
U7C U8C G9A U10A U11G C12G C13G | 1.15
U7C U8C G9A U10A U11G C12G C13A | 1.13
U7C U8C G9A U10A U11G C12G C13U | 1.14
U7C U8C G9A U10C U11A C12U C13A | 1.21
U7C U8C G9A U10C U11A C12U C13U | 1.3
U7C U8C G9A U10C U11A C12U C13G | 1.27
U7C U8C G9C U10C U11A C13A | 1.14
U7C U8C G9C U10C U11A C13G | 1.13
U7C U8C G9C U10C U11A C13U | 1.05
U7C U8C G9C U10A U11G C13U | 1.17
U7C U8C G9C U10A U11G C13A | 1.13
U7C U8C G9C U10A U11G C13G | 1.14
U7C U8C G9A U10C U11C C12U | 1.41
U7C U8C G9A U10C U11C C12A | 1.25
U7C U8C G9A U10C U11C C12G | 1.19
U7C U8C G9A U10A U11G C12U C13G | 1.21
U7C U8C G9A U10A U11G C12U C13U | 1.16
U7C U8C G9A U10A U11G C12U C13A | 1.13

Variant | aptazyme ON/OFF ratio
U7C U8C G9C U10C U11A C12A | 1.12
U7C U8C G9C U10C U11A C12U | 1.02
U7C U8C G9C U10C U11A C12G | 1.11
U7C U8C G9C U10C U11C C12U C13A | 1.08
U7C U8C G9C U10C U11C C12U C13G | 1.08
U7C U8C G9A U10G U11G C12U C13A | 1.1
U7C U8C G9A U10G U11G C12U C13G | 1.11
U7C U8C G9A U10G U11G C12U C13U | 1.14
U7C U8C G9A U10C C12G C13G | 1.21
U7C U8C G9A U10C C12G C13U | 1.11
U7C U8C G9A U10C C12G C13A | 1.28
U7C U8C G9A U11C C12A C13A | 1.29
U7C U8C G9A U11C C12A C13U | 1.38
U7C U8C G9A U11C C12A C13G | 1.19
U7C U8C G9C U10A U11C C12A C13U | 1.13
U7C U8C G9C U10A U11C C12A C13G | 1.09
U7C U8C G9C U10A U11C C12A C13A | 1.09
U7C U8C G9C U10A U11C C12G C13G | 1.15
U7C U8C G9C U10A U11C C12G C13U | 1.2
U7C U8C G9C U10A U11C C12G C13A | 1.21
U7C U8C G9A U10G U11G C12A C13G | 1.1
U7C U8C G9A U10G U11G C12A C13A | 1.2
U7C U8C G9A U10G U11G C12A C13U | 1.15
